Test results published in patent US20180355044A1 (CELLERANT THERAPEUTICS, published 2018).
Changes are numbered by the printed parent chain. Names may count otherwise.

Columns and labels:
[1] = molecular target: T1, C type Lectin Like molecule 1 (CLL-1), human, on cells (human, UniProt Q5QGZ9 1-265); assay: competition by flow cytometry on 293-CLL1 cells; Alexa488-labelled ChiM31 is displaced by the unlabelled antibody (half-maximal displacement, headed EC50 on the sheet)
T1 construct: whole, on cells; also called CLEC12A; DCAL-2
T1 sequence (looked up): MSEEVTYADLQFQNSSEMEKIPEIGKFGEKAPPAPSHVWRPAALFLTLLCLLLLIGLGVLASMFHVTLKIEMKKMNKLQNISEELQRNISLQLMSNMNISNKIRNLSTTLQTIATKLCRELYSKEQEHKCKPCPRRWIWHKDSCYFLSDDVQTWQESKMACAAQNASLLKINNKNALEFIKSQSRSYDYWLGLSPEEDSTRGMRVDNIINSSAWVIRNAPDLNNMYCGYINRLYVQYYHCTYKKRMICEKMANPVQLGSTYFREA
Procedure: FIG. 10 is an […] of competitive binding to 293CLL1 cells. ChiM31 was labelled with Alex488. Binding of ChiM31-Alex488 antibody in the presence of ChiM31, HuM31 and mouse M31 starting at 30 μg/ml and serial 3-fold dilutions, was analyzed. Absorbance values MFI (Y-axis) are plotted at each antibody concentration tested (X-axis) in the figure. IC₅₀ values were calculated using GraphPad Prism.
Referring to FIG. 10, ChiM31 was labeled with Alexa488. 293-CLL1 cells were pre-incubated with 1 μg of labeled ChiM31, and then completed with various amount of ChiM31 and HuM31. FACS were performed and data were analyzed and EC50 were calculated.

CLL-1 bearing a His Tag [2] = molecular target: T2, CLL-1 bearing a His Tag; assay: ELISA on His-tagged CLL-1, purified antibody
T2 construct: also called CLL1 His Tag antigen; His Tag antigen; not shown: The exact limits of the construct are not described
T2 chain: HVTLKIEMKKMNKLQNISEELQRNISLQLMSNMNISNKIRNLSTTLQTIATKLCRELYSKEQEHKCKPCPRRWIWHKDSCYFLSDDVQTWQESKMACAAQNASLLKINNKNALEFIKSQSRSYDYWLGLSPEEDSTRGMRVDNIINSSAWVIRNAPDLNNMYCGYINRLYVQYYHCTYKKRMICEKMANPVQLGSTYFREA
Procedure: FIG. 8 is an ELISA analysis of the binding of purified ChM31 (SEQ ID NO:14/SEQ ID NO:10), HuM31-VH2/VL2 (SEQ ID NO:16/SEQ ID NO:12), HuM31-VH3/VL2 (SEQ ID NO:17/SEQ ID NO:12), and HuM31-VH4/VL2 (SEQ ID NO:18/SEQ ID NO:12), antibodies to CLL-1 bearing a His Tag. Each antibody was tested at various concentrations, starting at 1 μg/ml and serial 2-fold dilutions. Absorbance values (Y-axis) are plotted at each antibody concentration tested (X-axis) in the figure.
Referring to FIG. 8, each antibody was tested at various concentrations, starting at 1 μg/mL and serial 2-fold dilutions. Absorbance values (Y-axis) are plotted at each antibody concentration tested (X-axis) in the figure.

CLL-1 bearing a His Tag [3] = molecular target: T2, CLL-1 bearing a His Tag; assay: competitive ELISA on His-tagged CLL-1; binding of mouse M31 is detected, the named antibody is the competitor
Procedure: FIG. 9 is an ELISA analysis of competitive binding affinity of ChM31 (SEQ ID NO:14/SEQ ID NO:10), HuM31-VH1/VL2 (SEQ ID NO:15/SEQ ID NO:12), HuM31-VH2/VL2 (SEQ ID NO:16/SEQ ID NO:12), HuM31-VH3/VL2 (SEQ ID NO:17/SEQ ID NO:12), and HuM31-VH4/VL2 (SEQ ID NO:18/SEQ ID NO:12), antibodies to CLL-1 bearing a His Tag. Binding of mouse M31 antibody in the presence of ChM31, HuM31-VH2/VL2, HuM31-VH3/VL2 or HuM31-VH4/VL2 antibody, starting at 25 μg/ml and serial 3-fold dilutions, was analyzed. Absorbance values (Y-axis) are plotted at each antibody concentration tested (X-axis) in the figure. IC₅₀ values were calculated using GraphPad Prism.
Referring to FIG. 9, binding of mouse M31 antibody in the presence of ChM31, HuM31-VH2/VL2, HuM31-VH3/VL2 or HuM31-VH4/VL2 antibody, starting at 25 μg/mL and serial 3-fold dilutions, was analyzed. Absorbance values (Y-axis) are plotted at each antibody concentration tested (X-axis) in the figure. IC50 values were calculated using GraphPad Prism.

[4] = molecular target: T1, C type Lectin Like molecule 1 (CLL-1), …; assay: flow cytometry on AML5 cells (express CLL-1), MFI of C6-CLT-D202 ADC over MFI of control C0-CLT-D202 ADC
[5] = molecular target: T1, C type Lectin Like molecule 1 (CLL-1), …; assay: cell-based or functional assay
[6] = molecular target: T1, C type Lectin Like molecule 1 (CLL-1), …; assay: flow cytometry on SHI-1 cells, MFI of C6-CLT-D202 ADC over MFI of control C0-CLT-D202 ADC; CLL-1 expression of this line not stated
[7] = molecular target: T1, C type Lectin Like molecule 1 (CLL-1), …; assay: flow cytometry on AML2 cells, MFI of C6-CLT-D202 ADC over MFI of control C0-CLT-D202 ADC; CLL-1 expression of this line not stated
[8] = molecular target: T1, C type Lectin Like molecule 1 (CLL-1), …; assay: cell-based or functional assay; remark: listed apart in the source
[9] = molecular target: T1, C type Lectin Like molecule 1 (CLL-1), …; assay: flow cytometry on HL-60 cells (express CLL-1), MFI of C6-CLT-D202 ADC over MFI of control C0-CLT-D202 ADC
[10] = molecular target: T1, C type Lectin Like molecule 1 (CLL-1), …; assay: cell-based or functional assay; remark: listed apart in the source
[11] = molecular target: T1, C type Lectin Like molecule 1 (CLL-1), …; assay: flow cytometry on KG-1a cells, MFI of C6-CLT-D202 ADC over MFI of control C0-CLT-D202 ADC; CLL-1 expression of this line not stated
[12] = molecular target: T1, C type Lectin Like molecule 1 (CLL-1), …; assay: flow cytometry on HNT-34 cells, MFI of C6-CLT-D202 ADC over MFI of control C0-CLT-D202 ADC; CLL-1 expression of this line not stated
[13] = molecular target: T1, C type Lectin Like molecule 1 (CLL-1), …; assay: flow cytometry on EOL-1 cells, MFI of C6-CLT-D202 ADC over MFI of control C0-CLT-D202 ADC; CLL-1 expression of this line not stated
[14] = molecular target: T1, C type Lectin Like molecule 1 (CLL-1), …; assay: flow cytometry on U937 cells (listed as CLL-1 expressing in paragraph 160), MFI of C6-CLT-D202 ADC over MFI of control C0-CLT-D202 ADC
[15] = molecular target: T1, C type Lectin Like molecule 1 (CLL-1), …; assay: flow cytometry on HEL92.1.7-CLL1 cells, MFI of C6-CLT-D202 ADC over MFI of control C0-CLT-D202 ADC
[16] = molecular target: T1, C type Lectin Like molecule 1 (CLL-1), …; assay: flow cytometry on PL21 cells, MFI of C6-CLT-D202 ADC over MFI of control C0-CLT-D202 ADC; CLL-1 expression of this line not stated

B1: Hu M31 (antibody, V domains shown)
VH: QVQLVQSGAEVKKPGASVKVSCKASGYTFTSYVMHWVRQAPGQRLEWIGYINPYNDGTKYNEKFKGKATITSDTSASTAYMELSSLRSEDTAVYYCARPIYFDNDYFDYWGQGTLVTVSS
VL: DIVMTQSPDSLAVSLGERATINCRASESVDSYGNSFMHWYQQKPGQPPKLLIYLASNLESGVPDRFSGSGSGTDFTLTISSLQAEDVAVYYCQQNNYDPWTFGGGTKVEIK
For B1, the EC50 [1] was 1.77 µg/mL.

B2: ChM31 (antibody, V domains shown)
VH: EVQLQQSGPELVKPGASVKMSCKASGYTFTSYVMHWVKQKPGQGLEWIGYINPYNDGTKYNEKFKGKATLTSDTSSSTAYMELNSLTSEDSAVYFCARPIYFDNDYFDYWGQGTTLKVSS
VL: TIVLTQSPASLAVSLGQRATISCRASESVDSYGNSFMHWYQQKPGQPPKLLIYLASNLESGVPARFSGSGSRTDFTLTIDPVEADDAATYYCQQNNYDPWTFGGGTKLEIK
notes: chimeric M31; also called Chi M31; ChiM31
For B2, the “EC50 (read off the curve)” value (CLL-1 bearing a His Tag [2]) was roughly 0.05 µg/mL, the “IC50 (read off the curve)” value (CLL-1 bearing a His Tag [3]) was roughly 0.6 µg/mL and the EC50 [1] was 0.71 µg/mL.

B3: HuM31-VH2/VL2 (antibody, V domains shown)
VH: B1 VH with K67R, I70L, A76T, S84R, E89D, L115T
VL: B2 VL with T1D, L4M, A9D, Q17E, S22N, R72G
notes: humanized M31 variant
B3 was tested, and the “EC50 (read off the curve)” value (CLL-1 bearing a His Tag [2]) was roughly 0.06 µg/mL.

B4: HuM31-VH4/VL2 (antibody, V domains shown)
VH: B1 VH with Q43R, K67R, A68V
VL: B2 VL with T1D, L4M, A9D, Q17E, S22N, R72G
notes: humanized M31 variant
In the case of B4, the “EC50 (read off the curve)” value (CLL-1 bearing a His Tag [2]) is reported as roughly 0.04 µg/mL.

B5: HuM31-VH3/VL2 (antibody, V domains shown)
VH: B1 VH with Q43R
VL: B2 VL with T1D, L4M, A9D, Q17E, S22N, R72G
notes: humanized M31 variant
For B5, the “EC50 (read off the curve)” value (CLL-1 bearing a His Tag [2]) was roughly 0.04 µg/mL.

B6: C6-CLT-D202 ADC (humanized, cys-substituted at position 239 anti-CLL1 antibody C6-S239C-CYSMAB conjugated to CLT-D202) (antibody, V domains shown)
VH: EVQLVQSGAEVKKPGASVKMSCKASGYTFTSYFIHWVRQAPGQGLEWIGFINPYNDGSKYAQKFQGRATLTSDKSTSTVYMELSSLRSEDTAVYYCTRDDGYYGYAMDYWGQGTLVTVSS
VL: DIQMTQSPSSLSASVGDRVTLTCRATQELSGYLSWLQQKPGKAIKRLIYAASTLDSGVPSRFSGNRAGTDYTLTISSLQPEDFATYYCLQYAIYPYTFGQGTKLEIK
modifications: S239C in the heavy chain constant region (constant region sequence not given); CLT-D202 drug-linker conjugated to the engineered Cys 239; drug to antibody ratio 1.7
notes: Only variable regions are printed; it carries S239C; also called C6-D202; CLL1-ADC
For B6, the “relative MFI C6/C0” value [4] was 15 ratio, the “IC50, cytotoxicity on AML2 cells” value [5] was 0.003 µg/mL and the “IC50, cytotoxicity on AML5 cells” value [5] was 0.013 µg/mL. The “IC50, cytotoxicity on EOL-1 cells” value [5] was 0.0137 µg/mL, the “IC50, cytotoxicity on HEL92.1.7-CLL1 cells” value [5] was 0.017 µg/mL and the “IC50, cytotoxicity on HL-60 cells” value [5] was 0.011 µg/mL. For the same binder, the “IC50, cytotoxicity on HNT-34 cells” value [5] was 3.5 µg/mL, the “IC50, cytotoxicity on KG-1a cells” value [5] was 82.8 µg/mL and the “IC50, cytotoxicity on PL21 cells” value [5] was 0.199 µg/mL. For the same binder, the “IC50, cytotoxicity on SHI-1 cells” value [5] was 5.67 µg/mL, the “IC50, cytotoxicity on U937 cells” value [5] was 11.7 µg/mL and the “relative MFI C6/C0” value [6] was 1.4 ratio. The “relative MFI C6/C0” value [7] was 13 ratio, the “IC50, cytotoxicity on TF1-CLL1 cells” value [8] was 0.008 µg/mL and the “relative MFI C6/C0” value [9] was 20 ratio. The “IC50, killing of proliferating AML-5 cells” value [10] was 0.03 µg/mL, the “IC50, killing of quiescent AML-5 cells” value [10] was 0.02 µg/mL and the “cell killing of HL-60 cells, relative to the control ADC” value [10] was greater than 500 fold. The “decrease in IC50, TF1-CLL1 against TF1 cells” value [10] was roughly 1000 fold, the “relative MFI C6/C0” value [11] was 1.3 ratio and the “relative MFI C6/C0” value [12] was 5.8 ratio. The “relative MFI C6/C0” value [13] was 20.5 ratio, the “relative MFI C6/C0” value [14] was 14.7 ratio and the “relative MFI C6/C0” value [15] was 26.1 ratio. For the same binder, the “relative MFI C6/C0” value [16] was 14.7 ratio.
